In patent publication US20260232732A1 (FUNDACI INSTITUT DE RECERCA CONTRA LA LEUC MIA JOSEP …, published 2026):
Where no end group is shown, it is not given here. The star is where a group is joined. Biotin = O=C1N[C@H]2[C@H](CS[C@H]2CCCCC(=O)*)N1

T1: biotin-peptide SSMEDYVNFN (human)
T1 peptide: Biotin-SSMEDYVNFN

T2: biotin-peptide MADDYGSEST (human)
T2 peptide: Biotin-MADDYGSEST

T3: biotin-peptide TSSMEDYVNF (human)
T3 peptide: Biotin-TSSMEDYVNF

T4: biotin-peptide TDFTSPIPNM (human)
T4 peptide: Biotin-TDFTSPIPNM

T5: biotin-peptide KNNVRQFAS (human)
T5 peptide: Biotin-KNNVRQFAS

T6: biotin-peptide SESTSSMEDY (human)
T6 peptide: Biotin-SESTSSMEDY

T7: biotin-peptide TSPIPNMADD (human)
T7 peptide: Biotin-TSPIPNMADD

T8: biotin-peptide IPNMADDYGS (human)
T8 peptide: Biotin-IPNMADDYGS

T9: biotin-peptide MTPTDFTSPI (human, also: prints MTPTDFTSP, without I10)
T9 peptide: Biotin-MTPTDFTSPI

T10: biotin-peptide DYGSESTSSM (human)
T10 peptide: Biotin-DYGSESTSSM

T11: biotin-peptide TDFYCEKNNV (human)
T11 peptide: Biotin-TDFYCEKNNV

T12: biotin-peptide YCEKNNVRQF (human)
T12 peptide: Biotin-YCEKNNVRQF

T13: biotin-peptide FNFTDFYCEK (human)
T13 peptide: Biotin-FNFTDFYCEK

T14: biotin-peptide SMEDYVNFNF (human)
T14 peptide: Biotin-SMEDYVNFNF

T15: biotin-peptide MEDYVNFNFT (human)
T15 peptide: Biotin-MEDYVNFNFT

T16: naked peptide FNFTDFYCEK (human)
T16 peptide: FNFTDFYCEK

T17: naked peptide DYGSESTSSM (human)
T17 peptide: DYGSESTSSM

T18: naked peptide YCEKNNVRQF (human)
T18 peptide: YCEKNNVRQF

T19: naked peptide KNNVRQFAS (human)
T19 peptide: KNNVRQFAS

T20: naked peptide SMEDYVNFNF (human)
T20 peptide: SMEDYVNFNF

T21: naked peptide SESTSSMEDY (human)
T21 peptide: SESTSSMEDY

T22: naked peptide MADDYGSEST (human)
T22 peptide: MADDYGSEST

T23: naked peptide TSPIPNMADD (human)
T23 peptide: TSPIPNMADD

T24: naked peptide TDFTSPIPNM (human)
T24 peptide: TDFTSPIPNM

T25: naked peptide SSMEDYVNFN (human)
T25 peptide: SSMEDYVNFN

T26: naked peptide TDFYCEKNNV (human)
T26 peptide: TDFYCEKNNV

T27: naked peptide IPNMADDYGS (human)
T27 peptide: IPNMADDYGS

T28: naked peptide TSSMEDYVNF (human)
T28 peptide: TSSMEDYVNF

T29: naked peptide YVNFNFTDFY (human)
T29 peptide: YVNFNFTDFY

T30: naked peptide MTPTDFTSPI (human)
T30 peptide: MTPTDFTSPI


Legend:
[1] = target: T1, biotin-peptide SSMEDYVNFN; assay: ELISA biotin-peptide; scFv 10 ug/mL; repII
Protocol: (§1) The peptides were synthesized naked or with a N-terminal Biotin modification with a purity of >98%. All four scFvs were verified by ELISA that can be detected with anti-His antibodies. ELISA was performed for scFv-peptide binding validation. Briefly, naked peptides were coated (50 μg/mL) in 0.58M carbonate-bicarbonate buffer pH9.5, 100 μL/well, 4° C. O/N. Then after blocking (3% BSA-PBS, 300 μL/well 37° C. 1.5 h) and washing (PBS+Tween-20 0.05% v/v (0.05% PBST), wells were incubated with each purified scFv antibody at concentration of 1 μg/mL in PBS at 37° C. 1 h. After washing (0.05% PBST), wells were incubated with secondary antibodies (goat anti-His IgG-HRP) in PBS, 37° C., 30 min. After washing, and incubation with TMB substrate, reactions were stopped with 2M HCl and reading was quantified at OD450.
(§2) ELISA with biotin-conjugated peptides (5 μg/mL) was performed very similar to described above with minor modifications.

[2] = target: T2, biotin-peptide MADDYGSEST; assay: ELISA biotin-peptide; scFv 10 ug/mL; repII
Protocol: as §1, §2

[3] = target: T3, biotin-peptide TSSMEDYVNF; assay: ELISA biotin-peptide; scFv 10 ug/mL; repII
Protocol: as §1, §2

[4] = target: T4, biotin-peptide TDFTSPIPNM; assay: ELISA biotin-peptide; scFv 10 ug/mL; repII
Protocol: as §1, §2

biotin-peptide KNNVRQFAS = target: T5, biotin-peptide KNNVRQFAS; assay: ELISA biotin-peptide; scFv 10 ug/mL; repII
Protocol: as §1, §2

[5] = target: T6, biotin-peptide SESTSSMEDY; assay: ELISA biotin-peptide; scFv 10 ug/mL; repII
Protocol: as §1, §2

[6] = target: T7, biotin-peptide TSPIPNMADD; assay: ELISA biotin-peptide; scFv 10 ug/mL; repII
Protocol: as §1, §2

[7] = target: T8, biotin-peptide IPNMADDYGS; assay: ELISA biotin-peptide; scFv 10 ug/mL; repII
Protocol: as §1, §2

[8] = target: T9, biotin-peptide MTPTDFTSPI; assay: ELISA biotin-peptide; scFv 10 ug/mL; repII
Protocol: as §1, §2

[9] = target: T10, biotin-peptide DYGSESTSSM; assay: ELISA biotin-peptide; scFv 10 ug/mL; repII
Protocol: as §1, §2

[10] = target: T11, biotin-peptide TDFYCEKNNV; assay: ELISA biotin-peptide; scFv 10 ug/mL; repII
Protocol: as §1, §2

[11] = target: T12, biotin-peptide YCEKNNVRQF; assay: ELISA biotin-peptide; scFv 10 ug/mL; repII
Protocol: as §1, §2

[12] = target: T13, biotin-peptide FNFTDFYCEK; assay: ELISA biotin-peptide; scFv 10 ug/mL; repII
Protocol: as §1, §2

[13] = target: T14, biotin-peptide SMEDYVNFNF; assay: ELISA biotin-peptide; scFv 10 ug/mL; repII
Protocol: as §1, §2

[14] = target: T15, biotin-peptide MEDYVNFNFT; assay: ELISA biotin-peptide; scFv 10 ug/mL; repII
Protocol: as §1, §2

naked peptide FNFTDFYCEK = target: T16, naked peptide FNFTDFYCEK; assay: ELISA naked peptide; scFv 1 ug/mL; repII
Protocol: as §1
(§3) Then a library of overlapping peptides were designed and constructed separately to produce 16 different peptides, covering full antigen sequence of total 48 aa. Peptide size was 10aa, with 7aa overlapping and ELISA screening of scFv against each peptide was performed in duplicate. Screening was performed using naked peptides in a standard plate or biotinylated peptides using avidin-plates.

naked peptide DYGSESTSSM = target: T17, naked peptide DYGSESTSSM; assay: ELISA naked peptide; scFv 1 ug/mL; repII
Protocol: as §1, §3

naked peptide YCEKNNVRQF = target: T18, naked peptide YCEKNNVRQF; assay: ELISA naked peptide; scFv 1 ug/mL; repII
Protocol: as §1, §3

naked peptide KNNVRQFAS = target: T19, naked peptide KNNVRQFAS; assay: ELISA naked peptide; scFv 1 ug/mL; repII
Protocol: as §1, §3

naked peptide SMEDYVNFNF = target: T20, naked peptide SMEDYVNFNF; assay: ELISA naked peptide; scFv 1 ug/mL; repII
Protocol: as §1, §3

naked peptide SESTSSMEDY = target: T21, naked peptide SESTSSMEDY; assay: ELISA naked peptide; scFv 1 ug/mL; repII
Protocol: as §1, §3

naked peptide MADDYGSEST = target: T22, naked peptide MADDYGSEST; assay: ELISA naked peptide; scFv 1 ug/mL; repII
Protocol: as §1, §3

naked peptide TSPIPNMADD = target: T23, naked peptide TSPIPNMADD; assay: ELISA naked peptide; scFv 1 ug/mL; repII
Protocol: as §1, §3

naked peptide TDFTSPIPNM = target: T24, naked peptide TDFTSPIPNM; assay: ELISA naked peptide; scFv 1 ug/mL; repII
Protocol: as §1, §3

naked peptide SSMEDYVNFN = target: T25, naked peptide SSMEDYVNFN; assay: ELISA naked peptide; scFv 1 ug/mL; repII
Protocol: as §1, §3

naked peptide TDFYCEKNNV = target: T26, naked peptide TDFYCEKNNV; assay: ELISA naked peptide; scFv 1 ug/mL; repII
Protocol: as §1, §3

naked peptide IPNMADDYGS = target: T27, naked peptide IPNMADDYGS; assay: ELISA naked peptide; scFv 1 ug/mL; repII
Protocol: as §1, §3

naked peptide TSSMEDYVNF = target: T28, naked peptide TSSMEDYVNF; assay: ELISA naked peptide; scFv 1 ug/mL; repII
Protocol: as §1, §3

naked peptide YVNFNFTDFY = target: T29, naked peptide YVNFNFTDFY; assay: ELISA naked peptide; scFv 1 ug/mL; repII
Protocol: as §1, §3

naked peptide MTPTDFTSPI = target: T30, naked peptide MTPTDFTSPI; assay: ELISA naked peptide; scFv 1 ug/mL; repII
Protocol: as §1, §3

| OD450 [1] | OD450 [2] | OD450 [3] | OD450 [4] | OD450 (biotin-peptide KNNVRQFAS) | OD450 [5] | OD450 [6] | OD450 [7] | OD450 [8] | OD450 [9] | OD450 [10] | OD450 [11] | OD450 [12] | OD450 [13] | OD450 [14] | OD450 (naked peptide FNFTDFYCEK) | OD450 (naked peptide DYGSESTSSM) | OD450 (naked peptide YCEKNNVRQF) | OD450 (naked peptide KNNVRQFAS) | OD450 (naked peptide SMEDYVNFNF) | Binder | also measured |
| --- | --- | --- | --- | --- | --- | --- | --- | --- | --- | --- | --- | --- | --- | --- | --- | --- | --- | --- | --- | --- | --- |
| 0.12 OD | 0.13 OD | 0.12 OD | 0.11 OD | 0.08 OD | 0.12 OD | 1.69 OD | 1.47 OD | 0.13 OD | 0.1 OD | 0.09 OD | 0.09 OD | 0.07 OD | 0.12 OD | 0.11 OD | 0.07 OD | 0.03 OD | 0.03 OD | 0.04 OD | 0.07 OD | Comparative antibody 3 (Comp-3) scFv, SR_92R (Somovilla-Crespo et al. 2018), His-tagged (scFv) scFv: EVKLEESGGGLVQPGGSMKLSCVASGFTFNKFWMNWVRQSPEKGLEWVAEIRLKSNNYATHYAESVKGRFTISRDDSKSSVYLQMNNLRAEDTGIYYCASDGWFAYWGQGTLVTVSAGGGGSGGGGSGGGGSGGGGSDVVMTQTPLSLPVSLGDQASISCRSSQSLVHSNGNTYLNWCLQRPGQSPKSLIYKVSNRFSGVPDRFSGSGSGTDFTLKISRVEAEDLGVYFCSQSTHFPRTFGGGTKLEIKRHHHHHH | OD450 (naked peptide SESTSSMEDY): 0.04 OD; OD450 (naked peptide MADDYGSEST): 0.04 OD; OD450 (naked peptide TSPIPNMADD): 0.04 OD; OD450 (naked peptide TDFTSPIPNM): 0.08 OD; OD450 (naked peptide SSMEDYVNFN): 0.08 OD; OD450 (naked peptide TDFYCEKNNV): 0.04 OD; OD450 (naked peptide IPNMADDYGS): 0.04 OD; OD450 (naked peptide TSSMEDYVNF): 0.03 OD; OD450 (naked peptide YVNFNFTDFY): 0.01 OD; OD450 (naked peptide MTPTDFTSPI): 0.04 OD |
| 0.13 OD | 0.07 OD | 0.08 OD | 0.08 OD | 0.06 OD | 0.1 OD | 0.15 OD | 0.14 OD | 0.07 OD | 0.11 OD | 0.05 OD | 0.06 OD | 0.05 OD | 0.1 OD | 0.14 OD | 0.02 OD | 0.02 OD | 0.04 OD | 0.02 OD | 0.02 OD | Comparative antibody 1 (Comp-1) scFv, SEQ ID NO: 10 from WO2023/037125 A1, His-tagged (scFv) scFv: QVQLKESGPGLVQPSQTLSLTCTVSGFSVASYDMHWVRLPPGKGLEWMGIIWANGNTHYNSGLKSRLSISRDTSKSQVFLKMNSLQTEDTAIYFCTRGGFAYWGQGTLVTVSSGGGGSGGGGSGGGGSGGGGSDVVMTQTPVSLSVSLGGQVSISCRSSQSLVHNNGNTYLSWYLQKPGQSPQLLIYKVSNRFSGVSDRFSGSGSGTDFTLKISRVEPDDLGVYYCGQGTQYPTFGGGTKLELKHHHHHH | OD450 (naked peptide SESTSSMEDY): 0.04 OD; OD450 (naked peptide MADDYGSEST): 0.02 OD; OD450 (naked peptide TSPIPNMADD): 0.05 OD; OD450 (naked peptide TDFTSPIPNM): 0.06 OD; OD450 (naked peptide SSMEDYVNFN): 0.09 OD; OD450 (naked peptide TDFYCEKNNV): 0.03 OD; OD450 (naked peptide IPNMADDYGS): 0.01 OD; OD450 (naked peptide TSSMEDYVNF): 0.03 OD; OD450 (naked peptide YVNFNFTDFY): 0.04 OD; OD450 (naked peptide MTPTDFTSPI): 0.04 OD |
